Test results taken from article PMC4278678 (Biochemistry, 2014).

B1: FLAG-tagged 7xAla/L107C NEMO (natural protein, human, UniProt Q9Y6K9 1-419, looked up)
chain: MNRHLWKSQLAEMVQPSGGPAADQDVLGEESPLGKPAMLHLPSEQGAPETLQRALEENQELRDAIRQSNQILRERAEELLHFQASQREEKEFLMAKFQEARKLVERCGLEKLDLKRQKEQALREVEHLKRAQQQMAEDKASVKAQVTSLLGELQESQSRLEAATKEAQALEGRARAASEQARQLESEREALQQQHSVQVDQLRMQGQSVEAALRMERQAASEEKRKLAQLQVAYHQLFQEYDNHIKSSVVGSERKRGMQLEDLKQQLQQAEEALVAKQEVIDKLKEEAEQHKIVMETVPVLKAQADIYKADFQAERQAREKLAEKKELLQEQLEQLQREYSKLKASAQESARIEDMRKRHVEVSQAPLPPAPAYLSSPLALPSQRRSPPEEPPDFCCPKCQYQAPDMDTLQIHVMECIE
B2: 9xHis-SUMO-NEMO(1–120)(des3C/C54), oxidised covalent dimer (domain or fragment, human, UniProt Q9Y6K9 1-120, looked up)
chain: MNRHLWKSQLAEMVQPSGGPAADQDVLGEESPLGKPAMLHLPSEQGAPETLQRCLEENQELRDAIRQSNQILRERAEELLHFQASQREEKEFLMAKFQEARKLVERLGLEKLDLKRQKEQ
modifications: interchain disulfide bond at Cys54
B3: 9xHis-SUMO-NEMO(1–120)(des3C/C54/L107C), covalent dimer (domain or fragment, human, UniProt Q9Y6K9 1-120, looked up)
chain: MNRHLWKSQLAEMVQPSGGPAADQDVLGEESPLGKPAMLHLPSEQGAPETLQRCLEENQELRDAIRQSNQILRERAEELLHFQASQREEKEFLMAKFQEARKLVERCGLEKLDLKRQKEQ
modifications: interchain disulfide bonds at Cys54 and Cys107
B4: 9xHis-SUMO-NEMO(1–120)(des4C/L107C), covalent dimer (domain or fragment, human, UniProt Q9Y6K9 1-120, looked up)
chain: MNRHLWKSQLAEMVQPSGGPAADQDVLGEESPLGKPAMLHLPSEQGAPETLQRALEENQELRDAIRQSNQILRERAEELLHFQASQREEKEFLMAKFQEARKLVERCGLEKLDLKRQKEQ
modifications: interchain disulfide bond at Cys107
B5: 9xHis-SUMO-NEMO(44–111)(des2C/C54), covalent dimer (domain or fragment, human, UniProt Q9Y6K9 44-111, looked up)
chain: {9xHis‑SUMO}-EQGAPETLQRCLEENQELRDAIRQSNQILRERAEELLHFQASQREEKEFLMAKFQEARKLVERLGLEK
modifications: also: covalent dimer via interchain disulfide at Cys54
B6: 9xHis-SUMO-NEMO(44–111)(des3C/L107C), covalent dimer (domain or fragment, human, UniProt Q9Y6K9 44-111, looked up)
chain: {9xHis‑SUMO}-EQGAPETLQRALEENQELRDAIRQSNQILRERAEELLHFQASQREEKEFLMAKFQEARKLVERCGLEK
modifications: also: covalent dimer via interchain disulfide at Cys107
B7: 9xHis-SUMO-NEMO(44–111)(des2C/C54/L107C), covalent dimer (domain or fragment, human, UniProt Q9Y6K9 44-111, looked up)
chain: {9xHis‑SUMO}-EQGAPETLQRCLEENQELRDAIRQSNQILRERAEELLHFQASQREEKEFLMAKFQEARKLVERCGLEK
modifications: also: covalent dimer via interchain disulfides at Cys54 and Cys107

Molecular target: the molecule itself
Test: cross-linking

Stoichiometry N, 2:
B1

Molecular target: the molecule itself
Test: cross-linking
Remark: another data set of the same source

Stoichiometry N, 2:
B2
B3
B4
B5
B6
B7
